# Source: article PMC13436963
# B1: Drosophila Notch LNR domain fused to split firefly luciferase fragments (LNR–NLuc and LNR–CLuc) [Drosophila melanogaster] / Drosophila Notch LNR domain fused to split firefly luciferase fragments (LNR–NLuc and LNR–CLuc) … (parent)
# chain 1: GSGNDRYAADLEQQRAMCDKRGCTEKQGNGICDSDCNTYACNFDGNDCSLGINPWANCTANECWNKFKNGKCNEECNNAACHYDGHDCERKLKSCDSLFDAYCQKHYGDGFCDYGCNNAECSWDGLDCENKTQSPV
# chain 2: B1 chain 1
# Variants of: B1
# Experiment: split-luciferase complementation assay
# Conditions: with Drosophila Notch LNR domain fused to split firefly luciferase fragments (LNR–NLuc and LNR–CLuc) [Drosophila melanogaster], S2 cells, n=5, parent: 1, read off a plot
Variant,ratio to parent (bar labelled 'F1563A + WT' (N-Luc / C-Luc)),ratio to parent (bar labelled 'WT + F1563A' (N-Luc / C-Luc)),ratio to parent (bar labelled 'H1570A + WT' (N-Luc / C-Luc)),ratio to parent (bar labelled 'WT + H1570A' (N-Luc / C-Luc))
chain 1 F99A,0.97,1.1,–,–
chain 1 H106A,–,–,1,0.94
